T1: human GIP receptor (human, UniProt P48546 22-466)
T1 sequence (looked up): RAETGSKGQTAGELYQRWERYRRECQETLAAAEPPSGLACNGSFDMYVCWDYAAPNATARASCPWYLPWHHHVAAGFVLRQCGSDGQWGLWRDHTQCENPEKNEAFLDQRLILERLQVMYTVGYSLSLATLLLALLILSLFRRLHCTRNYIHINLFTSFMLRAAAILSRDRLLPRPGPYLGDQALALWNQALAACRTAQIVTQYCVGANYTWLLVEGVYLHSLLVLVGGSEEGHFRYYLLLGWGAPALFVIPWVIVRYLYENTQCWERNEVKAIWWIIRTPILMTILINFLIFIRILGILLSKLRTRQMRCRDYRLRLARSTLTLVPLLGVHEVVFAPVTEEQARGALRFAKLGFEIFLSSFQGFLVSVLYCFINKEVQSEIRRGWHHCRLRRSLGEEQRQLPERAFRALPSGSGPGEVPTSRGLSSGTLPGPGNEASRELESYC

B1: Y-Aib-EGT-αMeF(2F)-TSD-4Pal-SI-αMeL-LD-Orn-K((2-[2-(2-Amino-ethoxy)-ethoxy]-acetyl)2-(γ-Glu)-CO-(CH2)12-CO2H)AQ-Aib-EFI-(D-Glu)-αMeY-LI-Orn-GGK((2-[2-(2-Amino-e … (peptide)
peptide: YXEGTXTSDXSIXLDXKAQXEFIXXLIXGGKSSGAPPPS
modifications: Aib2, αMeF(2F)6, 4Pal10, αMeL13, Orn16, Aib20, D-Glu24, αMeY25, Orn28; acylated K17, K31 (groups as in name); C-terminal amide
B2: Y-Aib-EGT-αMeF(2F)-TSD-4Pal-Dap-I-αMeL-LD-Orn-K((2-[2-(2-Amino-ethoxy)-ethoxy]-acetyl)2-(γ-Glu)-CO-(CH2)12-CO2H)AQ-Aib-EFI-(D-Glu)-αMeY-LIEGGK((2-[2-(2-Amino-et … (peptide)
peptide: YXEGTXTSDXXIXLDXKAQXEFIXXLIEGGKSSGAPPPS
modifications: Aib2, αMeF(2F)6, 4Pal10, Dap11, αMeL13, Orn16, Aib20, D-Glu24, αMeY25; acylated K17, K31 (groups as in name); C-terminal amide
B3: Y-Aib-EGT-αMeF(2F)-TSD-4Pal-SI-αMeL-LD-Orn-K((2-[2-(2-Amino-ethoxy)-ethoxy]-acetyl)2-(γ-Glu)-CO-(CH2)i2-CO2H)AQ-Aib-4Pal-FI-(D-Glu)-αMeY-LIEGGK((2-[2-(2-Amino-e … (peptide)
peptide: YXEGTXTSDXSIXLDXKAQXXFIXXLIEGGKSSGAPPPS
modifications: Aib2, αMeF(2F)6, 4Pal10, αMeL13, Orn16, Aib20, 4Pal21, D-Glu24, αMeY25; acylated K17, K31 (groups as in name); C-terminal amide
B4: Y-Aib-EGT-αMeF(2F)-TSDY-Dap-I-αMeL-LD-Orn-K((2-[2-(2-Amino-ethoxy)-ethoxy]-acetyl)2-(γ-Glu)-CO-(CH2)12-CO2H)AQ-Aib-EFI-(D-Glu)-αMeY-LIEGGK((2-[2-(2-Amino-ethoxy … (peptide)
peptide: YXEGTXTSDYXIXLDXKAQXEFIXXLIEGGKSSGAPPPS
modifications: Aib2, αMeF(2F)6, Dap11, αMeL13, Orn16, Aib20, D-Glu24, αMeY25; acylated K17, K31 (groups as in name); C-terminal amide
B5: Y-Aib-EGT-αMeF(2F)-TSD-4Pal-Ac5c-I-αMeL-LD-Orn-K((2-[2-(2-Amino-ethoxy)-ethoxy]-acetyl)2-(γ-Glu)-CO-(CH2)12-CO2H)AQ-Aib-EFI-(D-Glu)-αMeY-LIEGGK((2-[2-(2-Amino-e … (peptide)
peptide: YXEGTXTSDXXIXLDXKAQXEFIXXLIEGGKSSGAPPPS
modifications: Aib2, αMeF(2F)6, 4Pal10, Ac5c11, αMeL13, Orn16, Aib20, D-Glu24, αMeY25; acylated K17, K31 (groups as in name); C-terminal amide
B6: Y-Aib-EGT-αMeF(2F)-TSD-4Pal-SI-αMeL-LD-Orn-K((2-[2-(2-Amino-ethoxy)-ethoxy]-acetyl)2-(γ-Glu)-CO-(CH2)12-CO2H)AQ-Aib-EFI-(D-Glu)-αMeY-LIEGGK((2-[2-(2-Amino-ethox … (peptide)
peptide: YXEGTXTSDXSIXLDXKAQXEFIXXLIEGGKSSGAPPPX
modifications: Aib2, αMeF(2F)6, 4Pal10, αMeL13, Orn16, Aib20, D-Glu24, αMeY25, Orn39; acylated K17, K31 (groups as in name); C-terminal amide
B7: Y-Aib-EGT-αMeF(2F)-TSD-4Pal-Tle-I-αMeL-LD-Orn-K((2-[2-(2-Amino-ethoxy)-ethoxy]-acetyl)2-(γ-Glu)-CO-(CH2)12-CO2H)AQ-Aib-EFI-(D-Glu)-αMeY-LIEGGK((2-[2-(2-Amino-et … (peptide)
peptide: YXEGTXTSDXXIXLDXKAQXEFIXXLIEGGKSSGAPPPS
modifications: Aib2, αMeF(2F)6, 4Pal10, Tle11, αMeL13, Orn16, Aib20, D-Glu24, αMeY25; acylated K17, K31 (groups as in name); C-terminal amide
B8: Y-Aib-EGT-αMeF(2F)-TSD-4Pal-αMeS-I-αMeL-LD-Orn-K((2-[2-(2-Amino-ethoxy)-ethoxy]-acetyl)2-(γ-Glu)-CO-(CH2)12-CO2H)AQ-Aib-EFI-(D-Glu)-αMeY-LIEGGK((2-[2-(2-Amino-e … (peptide)
peptide: YXEGTXTSDXXIXLDXKAQXEFIXXLIEGGKSSGAPPPS
modifications: Aib2, αMeF(2F)6, 4Pal10, αMeS11, αMeL13, Orn16, Aib20, D-Glu24, αMeY25; acylated K17, K31 (groups as in name); C-terminal amide
B9: Y-Aib-EGT-αMeF(2F)-TSD-4Pal-αMeS-I-αMeL-LD-Orn-IAQ-Aib-K((2-[2-(2-Amino-ethoxy)-ethoxy]-acetyl)2-(γ-Glu)-CO-(CH2)12-CO2H)FIK((2-[2-(2-Amino-ethoxy)-ethoxy]-acet … (peptide)
peptide: YXEGTXTSDXXIXLDXIAQXKFIKXLIEGGPSSGAPPPS
modifications: Aib2, αMeF(2F)6, 4Pal10, αMeS11, αMeL13, Orn16, Aib20, αMeY25; acylated K21, K24 (groups as in name); C-terminal amide
B10: Y-Aib-EGT-αMeF(2F)-TSD-4Pal-αMeS-I-αMeL-LD-Orn-IAQ-Aib-K((2-[2-(2-Amino-ethoxy)-ethoxy]-acetyl)2-(γ-Glu)-CO-(CH2)12-CO2H)FI-(D-Glu)-αMeY-LIK((2-[2-(2-Amino-etho … (peptide)
peptide: YXEGTXTSDXXIXLDXIAQXKFIXXLIKGGPSSGAPPPS
modifications: Aib2, αMeF(2F)6, 4Pal10, αMeS11, αMeL13, Orn16, Aib20, D-Glu24, αMeY25; acylated K21, K28 (groups as in name); C-terminal amide
B11: Y-Aib-EGT-αMeF(2F)-TSD-4Pal-αMeS-I-αMeL-LD-Orn-IAQ-Aib-EFIK((2-[2-(2-Amino-ethoxy)-ethoxy]-acetyl)2-(γ-Glu)-CO-(CH2)12-CO2H)-αMeY-LIK((2-[2-(2-Amino-ethoxy)-eth … (peptide)
peptide: YXEGTXTSDXXIXLDXIAQXEFIKXLIKGGPSSGAPPPS
modifications: Aib2, αMeF(2F)6, 4Pal10, αMeS11, αMeL13, Orn16, Aib20, αMeY25; acylated K24, K28 (groups as in name); C-terminal amide
B12: Y-Aib-EGT-αMeF(2F)-TSD-4Pal-SI-αMeL-LD-Orn-IAQ-Aib-EFIK((2-[2-(2-Amino-ethoxy)-ethoxy]-acetyl)2-CO-(CH2)12-CO2H)-αMeY-LIEGGPSSGAPPP … (peptide)
peptide: YXEGTXTSDXSIXLDXIAQXEFIKXLIEGGPSSGAPPPSK
modifications: Aib2, αMeF(2F)6, 4Pal10, αMeL13, Orn16, Aib20, αMeY25; acylated K24, K40 (groups as in name); C-terminal amide
B13: Y-Aib-EGT-αMeF(2F)-TSD-4Pal-SI-αMeL-LD-Orn-IAQ-Aib-EFI-(D-Glu)-αMeY-LIK((2-[2-(2-Amino-ethoxy)-ethoxy]-acetyl)2-(γ-Glu)-(4-(4-tert-butylphenyl)butanoyl))GGPSSGA … (peptide)
peptide: YXEGTXTSDXSIXLDXIAQXEFIXXLIKGGPSSGAPPPSK
modifications: Aib2, αMeF(2F)6, 4Pal10, αMeL13, Orn16, Aib20, D-Glu24, αMeY25; acylated K28, K40 (groups as in name); C-terminal amide

How the values were obtained:
Assay in all cases: cell-based or functional assay
human glucagon receptor = human glucagon receptor (human, UniProt P47871 26-477)
human GLP-1 receptor = human GLP-1 receptor (human, UniProt P43220 24-463)
human GIP receptor = biological target: T1, human GIP receptor

Binder | cAMP EC50 (1.0% HSA) (human glucagon receptor) [nM] | cAMP EC50 (1.0% HSA) (human GLP-1 receptor) [nM] | cAMP Emax (1.0% HSA) (human GLP-1 receptor) [%] | cAMP EC50 (1.0% HSA) (human GIP receptor) [nM] | cAMP Emax (1.0% HSA) (human GIP receptor) [%]
B1 | > 9950 | 17.3 | 112 | 0.306 | 87.5
B2 | > 9950 | 70 | 100 | 2.45 | 77.1
B3 | > 9950 | 36 |  | 0.718 | 89.6
B4 | > 9950 | 26.6 |  | 2.7 | 83.7
B5 | > 9950 | 94.2 | 99 | 2.16 | 64.5
B6 | > 9950 | 70.5 | 103 | 1.34 | 93
B7 | > 9950 | 62.2 | 109 | 6.09 | 75.3
B8 | > 9950 | 40.3 | 102 | 4.38 | 95.6
B9 | > 9950 | 14.8 | 107 | 0.925 | 91.3
B10 | > 9950 | 87.8 | 118 | 7.84 | 62.7
B11 | > 9950 | 32.3 | 117 | 5.31 | 63.4
B12 | > 9950 | 21.2 | 109 | 1.24 | 80.7
B13 | > 9950 | 3.03 | 98.1 | 0.242 | 77.6

Source: US20230265151A1, “GIP/GLP1 CO-AGONIST COMPOUNDS” (priority 2020, published 2023)
